Measured values from article PMC3257359 (Cell research, 2011).
No end group written: not given here. *: point of attachment. Biotin = O=C1N[C@H]2[C@H](CS[C@H]2CCCCC(=O)*)N1

B1: SRC1-4 peptide (coactivator LXXLL motif of steroid receptor coactivator 1), N-terminally biotinylated (peptide)
peptide: Biotin-QKPTSGPQTPQAQQKSLLQQLLTE
B2: CBP-1 peptide (coactivator LXXLL motif of CBP), N-terminally biotinylated (peptide)
peptide: Biotin-SGNLVPDAASKHKQLSELLRGGSG
B3: SRC1-2 peptide (coactivator LXXLL motif of steroid receptor coactivator 1), N-terminally biotinylated (peptide)
peptide: Biotin-SPSSHSSLTERHKILHRLLQEGSP
B4: SRC2-3 peptide (coactivator LXXLL motif of steroid receptor coactivator 2), N-terminally biotinylated (peptide)
peptide: Biotin-QEPVSPKKKENALLRYLLDKDDTKD

Target: T1, human PPARγ LBD (residues 206-477) (human, UniProt P37231-2 206-477)
T1 sequence: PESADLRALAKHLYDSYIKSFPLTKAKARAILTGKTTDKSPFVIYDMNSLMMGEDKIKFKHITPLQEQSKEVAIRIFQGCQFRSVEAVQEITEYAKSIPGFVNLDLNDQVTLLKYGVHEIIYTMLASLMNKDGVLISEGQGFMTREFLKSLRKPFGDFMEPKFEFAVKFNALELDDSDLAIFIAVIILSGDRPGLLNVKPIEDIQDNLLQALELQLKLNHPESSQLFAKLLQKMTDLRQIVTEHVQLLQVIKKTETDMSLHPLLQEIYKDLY
Assay: AlphaScreen or HTRF

**Q.** Does B1 bind?
**A.** Result: binds

**Q.** Does B2 bind?
**A.** Result: binds

**Q.** Does B3 bind?
**A.** Result: binds

**Q.** Does B4 bind?
**A.** Result: binds
